According to the nanobody polyreactivity screen of Harvey et al. (2022):

Experiment: yeast display, Sf9 membrane polyspecificity reagent, FACS + sequencing; frameworks hold sequencing errors
How it was run: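 In a synthetic yeast display library (Saccharomyces cerevisiae BJ5465), nanobody expression was induced with galactose for 36–48 hours. FACS gates were set low and high (top ~1%) using anti-HA fluorescence for expression and streptavidin fluorescence for binding of the Sf9 membrane reagent. Each polyreactivity label is drawn from the gate of origin.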

Sequence | polyreactivity (PSR sort gate)
QVQLVESGGGLVQAGGSLRLSCAASGSTFLYYTMGWYRPAPGKERELVAAITSGGDTNYPDSVKGRFTISRDNAKNTVYLQMNSLKPEDTAVYYCNAEYTLSGTKIYTYKYDYRGQGTQVTVSS | low polyreactivity
QVQLVESGGGLVQAGGSLRLSCAASGSTFLYYTMGWYRQAPGKERELVAAITGSGTSTYYADSVKGRFTISRDNAKNTVYLQMNSLKPEDTAVYYCAARGHGRLYYWGQGTQVTVSS | high polyreactivity
QVQLVESGGGLVQAGGSLRLSCAASGSTFNAYAMGWYRQAPGKERELVAAISYTGGSTYYADSVKGRFTISRDNAKNTVYLQMNSLKPDDTAVYYCARRQARKFYYWGQGTQVTVSS | high polyreactivity
QVQLVESGGGLVQAGGSLRLSCAASGSTFNGNVMGWYRQAPGKERELVAGISKSGGTTYYADSVKGRFTISRDNAKNTVYLQMNSLKPEDTAVYYCAARGRVRYYPQYDYWGQGTQVTVSS | high polyreactivity
QVQLVESGGGLVQAGGSLRLSCAASGSTFNHYAMGWYRQAPGKERELVAAITKSGGSTYADSVKGRFTISRDNAKNTVYLQMNSLKPEDTAVYYCAAGRRKYGTKGRGDYWGQGTQVTVSS | low polyreactivity
QVQLVESGGGLVQAGGSLRLSCAASGSTFNIYAMGWYRQAPGKERELVATISWTGGRTFYADSVKGRFTISRDNAKNTVYLQMNSLKPEDTAVYYCNKASTGGYDYWGQGTQVTVSS | high polyreactivity
QVQLVESGGGLVQAGGSLRLSCAASGSTFNIYVMGWYRQAPGKERELVADITTSGRTYYADSVKGRFTISRDNAKNTVYVQMNSLKPEDTAVYYCADATGTYGRGGYYWGQGTQLTVSS | high polyreactivity
QVQLVESGGGLVQAGGSLRLSCAASGSTFNKYAMGWYRPAPGKERELVAVITKRGGSTYYADSVKGRFTISRDNAKNTVYLQMNSLKPEDTAVYYCAASSLYYGYDYWGQGTQVTVSS | high polyreactivity
QVQLVESGGGLVQAGGSLRLSCAASGSTFNLNAMGWYRQAPGKERELVAAIDSGGRTNYADSVKGRFTISRDNAKNTVYLQMNSLKPEDTAVYYCAARVLPYLTPRRQMYYWGQGTQVTVSS | low polyreactivity
QVQLVESGGGLVQAGGSLRLSCAASGSTFNLYAMGWYRQAPGKERELVASISRSGVSTYYADSVKGRFTISRDNAKNTVYLQMNRLKPEDTAVYYCAVDKVLYRLYPGMDYWGQGTQVTVSS | low polyreactivity
QVQLVESGGGLVQAGGSLRLSCAASGSTFNNNAMGWYRQAPGKERELVAAISYTGGSTYYADSVKGRFTISRDNAKNTVYLQMKSLKPEDTAVYYCDAAYPHFGGYRYDYWGQGTQVTVSS | high polyreactivity
QVQLVESGGGLVQAGGSLRLSCAASGSTFNQYAMGWYRQAPGKEREFVATITWSGGRTYYADSVKGRFTISRDNAKNTVYLQMISLKPEDTAVYYCAAQPDYRPSYGYGYWGQGTQVTVSS | low polyreactivity
QVQLVESGGGLVQAGGSLRLSCAASGSTFNRYALGWYRQAPGKEREFVAAISTRGGSTHYADSVKGRFTISRDNAKNTVYLQMNSLKPEDTAVYYCNARGYYSVPSNTGIRYYRFDYWGQGTQVTVSS | low polyreactivity
QVQLVESGGGLVQAGGSLRLSCAASGSTFNRYAMGWYRQAHGKERELVAGISYRGGTYYSDSVKGRFTISRDNAKNTVYLQMNSLKPEDTAVYYCNVVRRGTTSYDDYEYWGQGTQVTVSS | high polyreactivity
QVQLVESGGGLVQAGGSLRLSCAASGSTFNRYAMGWYRQAPGKERELVAAITRSGTSTYYADSVKGRFTISRDNAKNTVYLQMNSLKPEDTAVYYCAAVRYAVHFSYDYWGQGTQVTVSS | high polyreactivity
QVQLVESGGGLVQAGGSLRLSCAASGSTFNRYAMGWYRQAPGKERELVAAITSTGGTNYADSVKGRFTISLDNAKNTVYLQMYSLKPEDTAVYYCAKRWLRGRSNYWGHGTQVTVSS | high polyreactivity

Sequence | polyreactivity (PSR sort gate)
QVQLVESGGGLVQAGGSLRLSCAASGSTFNTNAMGWYRQAPGKERELVAAITSSGGGTYYADSVKGRFTISRDNAKNTVYLQMNSLKPEDTAVYYCNAVSGWYNSITYDYWGQGTQVTVSS | high polyreactivity
QVQLVESGGGLVQAGGSLRLSCAASGSTFNTYAMGWYRQAPGKERELVAAITWRGGRTYYADSVKGRFTISRDNAKNTVYLQMISLKPEDTAVYYCNTLRPRLDGVYGYDYWGQGSQVTVSS | high polyreactivity
QVQLVESGGGLVQAGGSLRLSCAASGSTFNWNAMGWYRPAPGKERELVAAISRSGGRTSYADSVKGRFTISRDNAKNTVYLQMNSLKPEDTAVYYCAAEKVGTRPSRDYDYWGQGTQVTVSS | high polyreactivity
QVQLVESGGGLVQAGGSLRLSCAASGSTFPAYTMGWYRQAPGKERELVAAINVSSGGSTYYADSVKGRFTISRDNAKNTVYLQRNSLKPEDTAVYYCATHGYVAHPYYYPYYYWGQGTQVTVSS | low polyreactivity
QVQLVESGGGLVQAGGSLRLSCAASGSTFPFNAMGWYRQAPGKEREFVAVINSGGDSTYYADSVKGRFTISRDNAKNTVYLQMNSLKPEDTAVYYCNAEDTRNDYDYWGQGTQVTVSS | low polyreactivity
QVQLVESGGGLVQAGGSLRLSCAASGSTFPFYAMGWYRQAPGKERELVAAIRYTGNTYYADSVKGRFTISRDNAKNTVYLQMNSLKPEDTAVYYCAADADYWAYGYWGQGTQVTVSS | low polyreactivity
QVQLVESGGGLVQAGGSLRLSCAASGSTFPGNAMGWYRQAPGNERELVAAIRWSGGRTYYADSVKGRFTISRDNAKNTVYLQMNSLKPEDTAVYYCAARLRKHGYGYWGQGTQVTVSS | low polyreactivity
QVQLVESGGGLVQAGGSLRLSCAASGSTFPHNAMGWYRPAPGKERELVAAISVGGGSTHYADSVKGRFTISRDNAKNTVYLQMNSLKPEDTAVYYCAKDYAYQYSFVTYDYWGQGTQVTVSS | low polyreactivity
QVQLVESGGGLVQAGGSLRLSCAASGSTFPKNAKGWYRQAPGKERELVAAINTGGSTYYADSVKGRFTISRDNAKNTVYLQINSLKPEDTAVYYCAARDNYHRDVGHPYDYWGQGTQVTVSS | low polyreactivity
QVQLVESGGGLVQAGGSLRLSCAASGSTFPKNAMGWTIQAPGKERELVADINTGGSTYYADSVKGRFTISRDNAKNTVYLQMNSLIPEDTAVYYCNTQSFYFVSYSSSRYLRYYWGQVTQVTVSS | low polyreactivity
QVQLVESGGGLVQAGGSLRLSCAASGSTFPKYAMGWYRPAPGKERELVAAITSRGSTYADSVKGRFTISRDNAKNTVYLPMNSLKPVDTAVYYCAKDSRYASRDYWGQGTQVTVSS | high polyreactivity
QVQLVESGGGLVQAGGSLRLSCAASGSTFPKYAMGWYRQAPGKERELVASISVTTGSTYYADSVKGRFTISRDSAKNTVYLQMNSQKPVDTAVFYCAKRTYSRKFRGAYNYWGQGTQVTVSS | high polyreactivity
QVQLVESGGGLVQAGGSLRLSCAASGSTFPPNAMGWYRQAPGKERELVAGINGSGGRTYYADSVKGRFTISRDNAKNTVYLQMNSMKPEDTAVYYCATRLRSEYYYNKWYYHWGQGTQVTVSS | high polyreactivity
QVQLVESGGGLVQAGGSLRLSCAASGSTFPPYVMGWYRQAPGKERELVAAITWSSGSTYYADSVKGRFTISRDNAKNTVYLQMNSLKPEDTAVYYCAARAYRWGQGTQVTVSS | low polyreactivity
QVQLVESGGGLVQAGGSLRLSCAASGSTFPQNVMGWYRQAPGKVRELVAAITRSAGSTYYADSVKGRFTISRDNPKNTVYLQMNSLKPEDTAVYNCNTGRQRGSYYYDYWGQGTQVTVSS | high polyreactivity
QVQLVESGGGLVQAGGSLRLSCAASGSTFPRNAMGWYRLAPGKERELVAAITSGDSTYYADSVNGRFTISRDNAKNTVYLQKNSQKPEDTAVYYCGQGTQVTVSS | low polyreactivity
